Results taken from a protein production outcome set (Wang et al. 2014).

Test: label from the status in PepcDB records

Sequence	protein production
MEHSNLRKKHNYKFTISTLTLSCLMAFNAQAAVDCSPLEAWDAGKVYNGGEEVKQGTNAYKAKYWTQNNDPATAGEWGAWQDLGVCSGEVPNEAPTVDLTSPSATEQLTTGDLVTLTASAADSDGNIVRVDFSVDGVVISSVTASPYSTTWTALEGNHTISAQSYDDKGAQSTVSSVAINVTNTPTDNIAPTATLSLSATNVELGSVVTLTADAVDSDGTIDKVDFYIDNTLVGTAATAPYTLQYTTTAVGSLSVYAKATDNLGATANSASTNLTVTSSLPVADNCRPDGLYQTEGVTVPYCTIYDKEGREKMGADHPRRVIGYFTSWRDGGDEQNSYLVKDIPWEQLTHINYAFVSIGSDGKVNVGDVTDPNNAATGKEWAGVEIDPALGFKGHFGALATAKAKHGVKTLISIGGWAETGGHFGADGNRVADGGFYTMTTNADGSINHAAIEKFAVSAVEMMRKYKFDGLDIDYEYPTSMAGAGNPDDKEFMEPRRQYLWASYQVLMKTLREKLDVASAQDDIHYMLTIAAPSSGYLLRGMETFDVTQYLDYVNIMSYDLHGAWNDHVGHNAALYDTGKDSELAQWNVYGTEAYGGIGYLNTDWAYHYFRGSMPAGRINIGVPYYTRGWQGVTGGENGLWGRAPLPDQAKCEPGTGEGEKNNCGYGALGIDNMWHDKNSYGQEMGAGSNPMWHAKNLQEGIFGSYANIYGLDPANDPADQLVGTYTRHYDSVAVAPWLWNAEKKVFLSTEDKDSINVKADYVIDQEIGGIMFWELAGDYSCYVLDSNGNRTSVDATEAACQTGNGEYHMGNTMTKAIYEKFKSATPYGNTVATGAIPTETVDIAVNVGGFKVGDQNYPINPKVTFTNNTGQDIPGGTEFQFDIPVSAPDNAKDQSGGGLQVIASGHTRPNNIGGLDGTMHRVAFTLPAWKALPAGGVYELDMVYYLPISGPANYTVNINNVDYAFKFEQPDLPLADLSSGGNNGGNGGTPDAGCDATGLVTYPDLPQKDWAGNPSHANTGDQVVHNNVIYQANWWTAAEPGSDGSWTKVCNL	failed
LRELDWFARRGLKEPNLAELLDLVALGSVADVVPLDANNRILVHQGLARIRAGRARPGLRALLEVAGRPPVRITSTDLGFILGPRLNAAGRLDDMSLGIECLLCDDEALARDMAVQLDQLNQDRKAIEQGMQREALAQLKELSLEQLPFGLCLFDADWHQGVIGILASRLKERYHRPTIAFADAGDGSLKGSARSIPGFHIRDALDAVAARHPGLISKFGGHAMAAGLSLPQENFGAFSAAFDAEVRRQLAEEDLAGRLLSDGQLSIQEFHLELARALRQAGPWGQHFPEPMFHGVFQLVQQRIVGERHLKLVLKSECGSLQLDGIAFNIDREQWPNPTVRWAELAYKLDVNEFRGQESVQLMIVHMAPR	failed
EPPDGVRIVPVTDRAGVDLVADVHEKAFGTDSTRMRHQLLAQVTDDPDAVVAVVALAGDEPVSAARMELVPGTRFAGLWGGGTVEGERGRGIYRALVAHRAKVAADRGYRYVQVDATSQSRPVLARLGFEPLTTTTPYVS	failed
MTNFTQSINFPGSLPLTRNLLAAACFFAMTQASAAGFISDVKQISDQEVRSGEGYYRADGKWLVYQAEVAGENPFYQIYLKNIASGEVQQVSPGIGKTTCSWVHPIQEKVLFSSTHEDPEAKAKMTTEIEQRKSGQRRSYAWDYDEFYDIYETDFAGGNIRNLTHTKGYDAEASWSPDGRLIAFASNRRAYSEPLSEAETVLFSNDPSSMIDIYIMDADGSNVKRLTHTNSYDGGPFFSPDGKRIVWRRFSENGQEAEIFTMNTDGSDQKQITRLNKMSWAPFYHPSNQYIIFATNVHGHRNFELYIVDIDGKKEPVRVTDEEGFDGLPVFTPDGQYITWTSDRTPDHKGRLFHGKWDHKKALESLGLE	failed
MTLIRWNPWQDLNTLQRQLNHLFEEDMLPSTLLERTLTRVPAAELHETAEVIYLKLELPGIDAKDVDLQVTDKAVYISGERKSETKTEDKGVFKSEFQYGKFQRVIPLPARIQNTNVTAEYKDGILNLTLPKAEVEKNKVVKINIESAAGLEHHHHHH	not failed
MNAIILAAGFGSRLMPLTKDQPKCMVEYKNKKIIDYEIEALKSAGINEIAVVGGYLNDVLKNYLNKYDIEHFFINSKYDKTNMVHTFFCAKDFMLKCIEEKQDLIISYADIVYFQDCVQKLINAKEELAIVVDKSWCKLWSKRFANPLEDAETLKMTNGYIIELGKKANAYDEIEAQYIGLFKFSYQFLSEVIAFYEMLDRDILYDNKNFENMYMTSFLQALIEKYNNAKAVEIDGNWCEIDFMSDLEVQIEKLEHHHHHH	failed
MGHHHHHHSHMTHSDKPYKCDRCQASFRYKGNLASHKTVHTGEKPYRCNICGAQFNRPANLKTHTRIHSGEKPY	not failed
MRAKITYAVTAAVLVVYFVLVGSRGVLLIQNGTLVTVTFGVAVLILPVIGVWFLWKNTQFVRKANALAAELDAEGGLPVDELRRTPGGRIDRDSADEVFARRKAETEDAPGDWRSWFRLAVAYHDARDTPRARKAMQRAIALHEGRPVEA	failed
MINKPNQFVNHLSALKKHFASYKELREAFNDYHKHNGDELTTFFLHQFDKVMELVKQKDFKTAQSRCEEELAAPYLPKPLVSFFQSLLQLVNHDLLEQQNAALASLPAAKIIELVLQDYPNKLNMIHYLLPKTKAFVKPHLLQRLQFVLTDSELLELKRFSFFQALNQIPGFQGEQVEYFNSKLKQKFTLTLGEFEIAQQPDAKAYFEQLITQIQQLFLKEPVNAEFANEIIDAFLVSYFPLHPPVPLAQLAAKIYEYVSQIVLNEAVNLKDELIKLIVHTLYEQLDRPVGDEN	not failed
MRVAIAGAGAVGRSIAGELLENGHEVLLIDKAPTAISVERVPMAEWLLADACEITSLDEAALQRCNVVIAATGDDKVNLVVSLLAKTEYGVPRVVARVNNPKNEWLFNESWGVDVAVSTPRLMSALVEEAVSVGDLVRLLRFSHGDANLVELTLPEESALAGTQVGDVQWPEDTSLVTIIRGTRVLTPSREDSLEAGDELLFVAAQAREEQLEDLLSARRQPDGTL	failed
MKRVNQNLYQLLRRIYWRLPLPEETKELLVGFARRFLRGMKKALAEPVTTASSASVSREKILQEYANQILAIPRKSGNEYVEISSSSYQRKEGDAKILAYYLPQFHPTKENDMWWGKGVTEWNNVSRAMPQYVGHYQPRLPGELGYYDLRILDNMRRQVELAQMYGIYGFCFYYYWFDGKRLLDKPLDMFLEAKTIDFPFSLCWANESWTRRFDGSCGEILVKQSETVESYIAFINSVVPYMRDSRYIRMNGKPIFTIYRPSFIPECASTITAWREHCVKAGIGDIYIIGIKEHTWDVNLIELGFDAQSEFHPGTLFKHCVDISSQINYMQDFGGIVLDYRDIVEHKKYFLYNHPKLHRAAMPMWDNSARRDNKGMIFEGASPDLYERWLTDILLEAKNREDLEDHYIFINAWNEWGEGAYLEPDKKYGYAYLNATRQAIEGVRS	failed
MFGGIENVKAAEPKVYQFDFGSGSMEPGYIGVRASDRYDRSKGYGFQTPENMRDVAASGAGVKSDAVEFLAYGTKSNNTFNVDLPNGLYEVKVTLGNTARASVAAEGVFQVINMTGDGAEDTFQIPVTDGQLNLLVTEGKAGTAFTLSALKIKKLSDQPVTNRTIYVGGDSTVCNYYPLNSSKQAGWGQMLPHYIDKHTFQVRNMASGGQIARGFRNDGQLEAILKYIKPGDYFMLQLGINDTNPKHKESEAEFKEVMRDMIRQVKAKGADVILSTPQGRATDFTSEGIHSSVNRWYRASILALAEEEKTYLIDLNVLSSAYFTSIGPERTLGLYMDGDTLHPNRAGADALARLAVQELKRQGIAGFLEHHHHHH	not failed
MTIGPLALVISLSQQMCVYLVVAYLLSKTPLFIPLVHVTIRLPHKAACYAIFSLFCIMGTYFGLRIDDSIANTRAIGAVLGGMLGGPSVGLAVGLTGGLHRYSMGGFTALACAISTTAEGLIGGLVHRYLVSRGQTGKLFQPLVVGLVTLFAEVCQMLIIILVARPAVNAVHLVETIALPMLVANSVGAAMFMTILLDRRTMFETQSSVFSAKALKIAARAEGALRSGFNRENSMRVARIIYEETGVGAVAITDRDKILAFIGIGDDHHKPGMAVTSLQTLESIRENRVMYADGNEVAYQCSISPTCPLGAALVIPLVDEGEQVIGTIKLYEPKTRLFSTINRTLGEGVARLLSTQILAGRYEQQRQLLAQSEIKLLHAQVNPHFLFNALNTLSAVIRLDPDHARHLVQSLSTFFRKNLKRTSEQVTLNDEVEQVSAYLEIELARFGDRLSVDFNVPADLGTATLPTFSLQPLVENAIKHGTAQLLGDGRIGVSAERQGGDLVVRVEDNAGLYERRPGGDGLGMNLVDRRIRARYGQGYGLSVECERDVVTRVILRVPFDPSPAGVASPAFEKVGP	failed
MAMNEIALFKGVRIQPYQKYIDFMFASVLAFIFLVYRIYILFIDYKSVNKKLDILTLFAYFKPHLLYLLIGTAIIFVICKLIAQFLIRFKTKDLAEMIETQGFHNRTVIKKTTEYIPIDYKQTEYDYYPTMFYKRGKKSFVIHIKKDGSRFQDNYLELETIIEPMFNSELVEKKHIGRYLRYEFMPLKYKKRIVMNGEQESNTIFYDTKIAITHQITWDFVKAPHGLVTGITGGGKTYFLFYVIRELFRRHSEVRLLDPKVSDLSFMKRVIGDDKVADTKGQILKQLREANNEMEERFRLMNDSSDYKIGNDFRNFDMRPYFIIFDEVTAFTSTLDKKELQEMNDYLINIIMKGRQAGVFMFLTAQRPDADVIKGNVRDQLGLRVSLGNLSNDGYRMTFGQTDKEFQTIHDSDIGRGYISILGQYNEPILFDAPLMEQYDFVEDVKQILNKE	failed
MLAGGAARRLGGADKPGLRVGGRPLLDRVLAACAGARRTVVVADPRPTARPVTWAREDPPGGGPLAALAAGLRHTTAEYVLVASADLPFLAGPTVGRLLSALAAGDADGVLLTDADGRDQPLVAAYRAPALRRELAALARNRAGRGERADGAQLTGLPLRRLTGALRLTRVPDAVAAFDCDTWDDLATARARIREHGHVLDEWISAAKDELGIDLDVDTGILLDLARDAAHGVARPAAPLTTFLVGYAAGRAGGGPEAVAETARKAAALAQRWAEEAADTGSAPARGKPDVAPDATPDTRPDA	failed
MISVAQYLEAATRPNTERAYAAATRHFEIEWGGHLPTTAEQVARYLAAYAGQLALNTLRHRLAALAQWHQAHGFADPTRAPVVRKVLKGIQTVHPSQEKRATPLQLTQLGQVVDWLDGAATAAGTRDDAAGRLRHMRDRAFVLLGFWRGFRGDELVRLQVQDLELVAGEGMTCFLPHSKSDRQHAGTTYKVPALSRWCPVAATMAWVAAAALHEGPLFRAVNQWGGIAAAPLHPNSLVPLLRRIFREAGLSSPNDYSGHSLRRGFAGWANANGWDVKALMEYVGWRDVHSAMRYLDGADPFARQRIEASVSPATPPLLALAAPAPDPVPTTAVEATVTLTRFNSRVRGLAKAHRLIEQICLQPHQAQRLNADGTRYRLAIAAVDEAAFEETIAMLLDEMHRIADNHQCFLAVALRDEAGGRHWD	failed
MKILLKSLVISASLCSPFVLANSEAHSDYLKGTAYLNQDNYKEAITWLTSAANNGSIEAQNKIGTIYAKGIGTEANTQLATQYFLKAAANQSSMAYYNLGKIYESEEKYSTSIDWYNKAIEENNSNAMNNLADLYLHGKGLVQNTHQAELLYIQAAELGNATAMRNLGFLYTNNKEVKQDMSKAYFWFNLAAEKDFPDADKYRDYTGKKLSKSKRIKVQNEALEWLEQHNS	failed
MLILSTEKEPNFEYEEITRSFLSNMLAFTRGHFTGDISHFSPIVLAEMEKDPNWLEEAAGGMQGVIVQSLLEDENFSSVEQLKGELARLIRLYFALAKDNLTENQESLYVDLFDKFTFLLLCSDEFIMYLDSQPKF	not failed
MAITVSIELNRDLEIPASYDEVFDLLADVPKSASHFPKVDKLVDLGNNAYRWEMEKVGVDKHAIQSVYACTYHADKEAGKITWSPIKGEGNGVVSGSWTLSAKGDNATAVKFQTSAELTVPLPSLLKLAISPVIKHEFNSLVDTYMANLKKAFLEHHHHHH	not failed
